Results on 8 molecules are retold here after US20210155689A1 (SHANGHAI PHARMAEXPLORER, published 2021).

Experiment [1] addresses LAG-3-hFc protein (human LAG-3 extracellular region with hFc tag) (human) (UniProt P18627). Nature of the experiment: ELISA, inhibition of LSECtin-His binding to coated LAG-3-hFc, antibody 0.000 nM, replicate 1. For orientation: An ELISA detects its analyte on a solid surface through an enzyme-linked reagent.
In experiment [2] the target is human LAG-3 on cells (HEK293-hLAG-3 stable cell line) (human) (UniProt P18627). Nature of the experiment: FACS, HEK293-hLAG-3, antibody 0.013 nM. Background: A flow cytometer gives signals particle by particle.
For experiment [3] the target is unchanged. Nature of the experiment: FACS, HEK293-hLAG-3, antibody 8 nM.
The target is the same in experiment [4]. Nature of the experiment: FACS, HEK293-hLAG-3, antibody 0.013 nM. The source holds these as a separate data set.
Experiment [5] has the same target. Nature of the experiment: FACS, HEK293-hLAG-3, antibody 0.000 nM.
Experiment [6] has as its target T1, human LAG-3 ECD (antigen protein of the affinity test) (human, UniProt P18627 23-450).
T1 sequence: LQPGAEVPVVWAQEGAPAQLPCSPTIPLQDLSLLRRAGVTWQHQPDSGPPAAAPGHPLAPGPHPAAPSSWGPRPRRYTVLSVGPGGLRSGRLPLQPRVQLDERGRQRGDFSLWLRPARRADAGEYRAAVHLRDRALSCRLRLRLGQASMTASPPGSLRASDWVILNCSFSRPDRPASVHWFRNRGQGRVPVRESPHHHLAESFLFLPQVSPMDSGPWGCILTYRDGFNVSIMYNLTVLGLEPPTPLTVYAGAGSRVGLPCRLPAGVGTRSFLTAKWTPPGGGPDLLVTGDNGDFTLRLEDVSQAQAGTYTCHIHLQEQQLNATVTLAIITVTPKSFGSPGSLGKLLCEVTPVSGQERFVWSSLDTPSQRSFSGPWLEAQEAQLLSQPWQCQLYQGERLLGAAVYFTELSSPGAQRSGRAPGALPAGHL
Nature of the experiment: SPR, CM5 chip, antibody captured by anti-human Fc IgG, antigen in flow, 1:1 fit. How it is done:
First, anti-human Fc IgG was immobilized on the surface of the CM5 chip to 6000-10000 RU by amino coupling method, with FC1 as the reference channel. The coupling process was as follows: a freshly prepared 1:1 mixture of 50 mM NHS and 200 mM EDC was activated for 7 minutes, then injected with 10-50 ug/ml anti-human Fc IgG diluted in 10 mM sodium acetate ph5.0 buffer. The remaining activated sites were blocked with 1M ethanolamine. Then, HBS-EP+ buffer was used to dilute the antibody to be tested to 5 ug/ml (adjustable according to the capture level) and the antibodies were captured on the chip at a flow rate of 10 ul/min to obtain a response value of about 100˜300 RU. Then the antigen protein was diluted to 100 nM (the highest concentration was tentatively 100 nM), and flew through the chip surface at a flow rate of 30 ul/min. If enough signal value was obtained, the antigen-protein was diluted by several concentration gradients, and flew through the chip surface respectively. At the end of each cycle, the chip surface was regenerated with 10 mM Glycine at pH 1.5. The kinetic rate constant needed to be subtracted from the blank control, and the data was fitted with the global fit analysis method 1:1 combination model. The dissociation equilibrium rate constant (KD) was calculated according to the following formula: KD=kd/ka.

For experiment [7], the target named is T2, human LAG-3 on cells (HEK293-hLAG-3 stable cell line) (human, UniProt P18627 23-525).
T2 sequence: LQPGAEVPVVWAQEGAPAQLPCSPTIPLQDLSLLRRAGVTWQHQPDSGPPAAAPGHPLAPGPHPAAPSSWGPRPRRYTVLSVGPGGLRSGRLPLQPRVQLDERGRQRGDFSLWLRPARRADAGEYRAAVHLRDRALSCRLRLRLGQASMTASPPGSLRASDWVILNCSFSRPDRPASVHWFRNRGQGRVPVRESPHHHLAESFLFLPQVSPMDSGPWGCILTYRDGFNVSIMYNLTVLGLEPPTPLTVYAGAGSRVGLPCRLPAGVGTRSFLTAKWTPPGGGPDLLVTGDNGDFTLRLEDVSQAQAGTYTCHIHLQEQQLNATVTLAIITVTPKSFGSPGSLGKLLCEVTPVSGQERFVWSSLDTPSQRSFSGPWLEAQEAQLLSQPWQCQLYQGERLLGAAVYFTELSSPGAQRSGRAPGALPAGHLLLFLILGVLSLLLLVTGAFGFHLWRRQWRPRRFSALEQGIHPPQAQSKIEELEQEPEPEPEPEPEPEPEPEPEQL
Nature of the experiment: FACS, HEK293-hLAG-3, antibody 0 nM.

Experiment [8] has as its target T3, mouse LAG-3 protein with hFc tag (mLAG-3-hFc protein) (mouse; human, UniProt Q61790 24-442).
T3 construct: Made in HEK293 cells; also called mouse LAG-3 extracellular domain protein; not shown: human IgG Fc fragment (hFc) of the pCpC vector
T3 sequence: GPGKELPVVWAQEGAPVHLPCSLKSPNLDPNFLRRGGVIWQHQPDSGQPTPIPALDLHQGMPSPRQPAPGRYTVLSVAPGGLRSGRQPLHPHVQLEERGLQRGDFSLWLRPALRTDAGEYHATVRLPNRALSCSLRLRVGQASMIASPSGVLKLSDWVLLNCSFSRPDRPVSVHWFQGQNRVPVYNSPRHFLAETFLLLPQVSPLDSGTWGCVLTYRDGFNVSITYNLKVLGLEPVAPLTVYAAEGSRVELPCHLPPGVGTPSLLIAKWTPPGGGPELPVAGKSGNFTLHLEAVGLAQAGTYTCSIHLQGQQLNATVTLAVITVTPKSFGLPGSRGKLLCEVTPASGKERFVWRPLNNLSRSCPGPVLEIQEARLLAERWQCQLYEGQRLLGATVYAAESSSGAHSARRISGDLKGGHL
Nature of the experiment: ELISA, mLAG-3-hFc coated; 66.6670 nM. Here is the method: The plate was sealed with plastic film and incubated overnight at 4° C. The plate was washed 2 times with the plate washing solution (PBS+0.01% Tween20) on the next day, and added with the blocking solution (PBS+0.01% Tween20+1% BSA) and blocked at room temperature for 1-2 hours. The blocking solution was poured out, and the plate was added with 50-100 μl of the antibody sample to be tested to each well, incubated at 37° C. for 1-2 hours, and washed 2-3 times with a plate washing solution (PBS+0.01% Tween20). HRP (horseradish peroxidase) labeled secondary antibody was added, and the plate was incubated at 37° C. for 1-2 hours, and washed 2-3 times with a plate washing solution (PBS+0.01% Tween20). 100 μl of TMB substrate was added to each well. After incubated at room temperature for 15-30 minutes, the plate was added with 100 μl of stop solution (1.0N HCl) to each well.

In experiment [1], hIgG control (antibody) registered an Inhibition rate (%) of 3.1%. Besides, the Mean fluorescence intensity in experiment [2] turned out to be 3; in experiment [3], 4; in experiment [4] it was 4; in experiment [5], 3.

B1: 556F6B8 mouse-human chimeric antibody (antibody, V domains shown)
VH: RVQLKQSGPGLVQPSQSLSITCTVSGFSLIKYGVHWVRQSPGEGLEWLGVIWRGGITDYNAAFMSRLSITKDNSKSQVFFKMNSLQADDTAIYYCAKWDGPLAMDYWGQGTSVTVSS
VL: DIVMTQSHKFLSTSVGDRVSITCKASQDVGTTVAWYQQKPGQSPKLLIYWASTRHTGVPDRFTGSGSGTDFTLTISNVQSEDLADYFCQQYSSYPYTFGGGTKLEIK
notes: also called mAb123-556F6B8; 556F8B8
On to B1, for which, in experiment [6], the Kd turned out to be 3.39 nM, the koff came to 0.000455 s⁻¹ and the kon is 134000 M⁻¹ s⁻¹. In experiment [7], this molecule showed a Mean fluorescence intensity of 4.

B2: 556F6B8 (LAG-3 mouse-human chimeric antibody) (antibody, V domains shown)
VH: RVQLKQSGPGLVQPSQSLSITCTVSGFSLIKYGVHWVRQSPGEGLEWLGVIWRGGITDYNAAFMSRLSITKDNSKSQVFFKMNSLQADDTAIYYCAKWDGPLAMDYWGQGTSVTVSS
VL: DIVMTQSHKFLSTSVGDRVSITCKASQDVGTTVAWYQQKPGQSPKLLIYWASTRHTGVPDRFTGSGSGTDFTLTISNVQSEDLADYFCQQYSSYPYTFGGGTKLEIK
notes: also called 556F8B8
B2 yielded an OD450 in experiment [8] of 1.08 OD450.

B3: 405B8H3 mouse-human chimeric antibody (antibody, V domains shown)
VH: QVQLQQSGAELVRPGASVTLSCKASGYTFTDYEMHWVKQTPVHGLEWIGATDPETGNSAYNQKFKGKAIMTADKSSSTAYMELRSLTSEDSAVYYCISTGWNDWGQGTSLTVSS
VL: DIKMTQSPSSMYASLGERVTITCKASQDINSYLSWFQQKPGKSPKTLIYRADRLLDGVPSRFSGSGSGQDYSLTISSLEYGDMGIYYCLQYDEFPYTFGGGTKLEIK
notes: also called mAb103-405B8H3
Regarding B3, in experiment [6], the Kd came to 2.58 nM, the off-rate (koff) turned out to be 0.000165 s⁻¹ and the kon is 64000 M⁻¹ s⁻¹.

B4: 405B8H3 (LAG-3 mouse-human chimeric antibody) (antibody, V domains shown)
VH: QVQLQQSGAELVRPGASVTLSCKASGYTFTDYEMHWVKQTPVHGLEWIGATDPETGNSAYNQKFKGKAIMTADKSSSTAYMELRSLTSEDSAVYYCISTGWNDWGQGTSLTVSS
VL: DIKMTQSPSSMYASLGERVTITCKASQDINSYLSWFQQKPGKSPKTLIYRADRLLDGVPSRFSGSGSGQDYSLTISSLEYGDMGIYYCLQYDEFPYTFGGGTKLEIK
notes: also called mouse-human chimeric antibody 405B8H3
Take B4: the OD450 in experiment [8] stood at 1.1 OD450.

B5: 105F1E10 (LAG-3 mouse-human chimeric antibody) (antibody, V domains shown)
VH: EVQLQQSGPELVKPGASVKMSCRASGYTFTDFKMHWMKQSHGKSLEWIGYIAPNNGGTAYNQKFRGKATLTVNESSNTAYMELRSLTSEDSAVYYCVDWDDVDYWGQGTTLTVSS
VL: DIKMTQSPSSMYASLGERVTITCKASQDINSYLSWFQQKSGKSPKTLIYRANRLVDGVPSRFSGSGSGQDYSLTISSLEYEDMGIYYCLQYVEFPLTFGAGTKLELK
For B5, the OD450 in experiment [8] stood at 0.54 OD450.

B6: 409D4E10 (LAG-3 mouse-human chimeric antibody) (antibody, V domains shown)
VH: QVQLQQSGAELVRPGASVTLSCKASGNTFTDYEMHWVKQTPVHGLEWIGATDPETDNTAYNQKFKGKAILTTDKSSSTAYMELRSLTSEDSAVYYCITSGWNDWGQGTSLTVSS
VL: DIKMTQSPSSMYASLGERVTITCKASQDINSYLSWFQQKPGKSPKTLIYRANRLLDGVPSRFSGSGSGQDYSLTISSLEYEDMGIYYCLQYNEFPYTFGGGTKLEIK
In experiment [8], B6 returned an OD450 of 1.06 OD450.

B7: 409B11E12 (LAG-3 mouse-human chimeric antibody) (antibody, V domains shown)
VH: QVQLQQSGAELVRPGASVTLSCKASGYTFTDYEMHWVKQTTVHGLEWIGATDPETSYSAYNQKFKGKAILTADKSSSTAYMELRSLTSEDSAVYYCIATGWNDWGQGTSLTVSS
VL: DLKMTQSPSSMYASLGERVTITCKASQDINSYLSWFQQKPGKSPKTLIYRANRLLDGVPSRFSGSGSGQDYSLTISSLEYEDMGIYYCLQYDEFPYTFGGGTKLEIK
For B7, the OD450 in experiment [8] was 1.1 OD450.

The Kd is the constant that tells how readily two partners part at equilibrium. As a reminder, the koff is a measure of how fast the partners let go of each other. In general, kon refers to the rate constant with which the complex forms.
